From the supplement of paper PMC12764529
± gives the half width of the 95% confidence interval.

Assays:
[1] = folding stability dG unfold (combined trypsin and chymotrypsin); higher = more stable
In short: (§1)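 Designed mini-proteins (under 80 residues, no cysteine) in a PA-tagged cDNA display construct were digested with trypsin and chymotrypsin. Each protease was used at 11 concentrations (threefold dilutions) plus a no-protease condition, followed by sequencing. K50 was inferred by Bayesian fitting of sequencing counts, and unfolding free energy was derived against a sequence-predicted unfolded-state K50 and a shared folded-state K50, per protease or combined. Only designs with AlphaFold2 dimer inter-PAE above 15 were kept.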

[2] = folding stability dG unfold from chymotrypsin proteolysis; higher = more stable
In short: as §1

[3] = folding stability dG unfold from trypsin proteolysis; higher = more stable
In short: as §1

Row | Sequence | folding stability dG unfold [1] [kcal/mol] | folding stability dG unfold [2] [kcal/mol] | folding stability dG unfold [3] [kcal/mol]
1 | SAGGLEELAKEIADDLQKRNPDMNIEVQVEVHEYKIPPGQKMRHPDGEEKEVPPGQKVYMFTIRVTPSAGGS [r16_357_TrROS] | 1.17 ± 0.21 | 1.26 ± 0.27 | 0.758 ± 0.11
2 | SAGGLEIDTSDGNVKVTKVSTKTTVEKDPTNPDRYRIITSKEIKTEPVKPPDVKEGPPIGLNNPELLSAGGS [r16_395_JUSTAS] | 0.165 ± 0.49 | 0.418 ± 0.47 | 0.475 ± 0.2
3 | SAGGLEIEVFNEKGEPVEVRLRRKEDDTLELEVRFRDASGREYRARATVRVKETEIELGEVDEWEELESAGG [r13_451_TrMRF] | 2.21 ± 0.26 | 1.84 ± 0.082 | 2.19 ± 0.09
4 | SAGGLENLENFELVETLTVKLPNGDKPVTLTLYRHPDGPAENVTSYEGKKYVFVVTDDSIEFFEGGTSAGGS [r16_711_TrMRF] | 0.81 ± 0.15 | 1.24 ± 0.16 | 0.0263 ± 0.044
5 | SAGGLGTDSTVPTLTLSVPVLVPTADGSPRELTVRVTIRAPVRLNPPTGELEIGDVEVSVEVFDPSLLSAGG [r13_312_TrMRF] | 3.37 ± 0.13 | 3.73 ± 0.11 | 3.03 ± 0.11
6 | SAGGLIEKLKELGFEIVSVEEREETLPNGKKVRTVKITVKLPNGELVKIEVRVLPNGEVIIKIEVKKPSAGG [r13_818_TrROS_Hall] | 3.55 ± 0.27 | 3.17 ± 0.89 | 3.72 ± 0.15
7 | SAGGLKIPVGSAEDALKAFEAIEEPVLVRTKDRKFVRELKLEDIKELVEKGVEFEFVLPSELPEEERKESAG [r5_677_TrMRF] | 0.566 ± 0.39 | 0.573 ± 0.21 | 0.574 ± 0.07
8 | SAGGLLPALLAPGFRKPPELPLVVVEAPIEEAVALAKENPSLGVLLVRVGGKLYLIDPKTGKVAPLGSAGGS [r16_214_TrMRF] | 1.32 ± 0.056 | 1.6 ± 0.033 | 0.767 ± 0.018
9 | SAGGLLVVLPPDLTPEELREKALELAELARKAGDFEVERIELVRDEETDRPYAVLVIRDPRTGKILVASAGG [r13_669_TrMRF] | 1.23 ± 0.042 | 1.05 ± 0.062 | 1.39 ± 0.014
10 | SAGGLNINLPPGQEIELTLQVTHLFNGGNGDFGSMTHTYEIPIKIKPIPPVPKPEVERDPDGNYKVEDSAGG [r13_401_TrROS] | 0.296 ± 0.28 | 0.358 ± 0.26 | -0.0612 ± 0.076
11 | SAGGLPELLKALGLPVTSVRSVPVLLPGGRPALVTFVEFEDPEGERYRLVVVRLPNGEVLVRVERLDPSAGG [r13_818_TrMRF] | 4.53 ± 0.1 | 4.9 ± 0.12 | 3.39 ± 0.15
12 | SAGGLPPEIKVEISFTPDPATGKWRGTVTAFDPVTGKTVTVPVTSDTPEELRARLEAAAAAVAAALASAGGS [r8_480_JUSTAS] | 4.08 ± 0.14 | 4.36 ± 0.12 | 3.03 ± 0.098
13 | SAGGLTVTLTDSSGNPVTVETELLPDNTLVLTITRTTPSGKTYTRTGIVSIDNTTINLVSFSEWTEDPSAGG [r13_451_JUSTAS] | 3.02 ± 0.16 | 3.25 ± 0.08 | 2.79 ± 0.097
14 | SAGGLTWEEAREIAEEIANMEVPSPNGMPMKVKVDIEIDPPNGYFRVDVKVEMPGKPQKFPLEIPLKSAGGS [r16_812_TrROS] | 0.673 ± 0.25 | 0.536 ± 0.17 | 0.607 ± 0.16
15 | SAGGMAEEVAEAVRDFFESQGLPAEVEPLSVHPNNLVVYRFRVPGYYALVVADPDNPVVVVTVYPLPSAGGS [r8_157_TrMRF] | 3.08 ± 0.14 | 3.45 ± 0.049 | 2.46 ± 0.13
16 | SAGGMAIKDVRVEGGVLYVYRGDKLVAKIEPGAAQPPVLVRFPDGTVVAVPRSVALALNPETLEFFDVSAGG [r13_802_TrMRF] | 1.43 ± 0.043 | 1.44 ± 0.087 | 1.24 ± 0.032
17 | SAGGMEEIEPVTITITVVDEETGEKVEIKITVPKEEITRIEIKPDGTIRIYFKENNEVIEIKLEDIKSAGGS [r16_410_TrROS_Hall] | 4.16 ± 0.32 | 4.22 ± 0.19 | 2.99 ± 0.24
18 | SAGGMEFEFTREDGRKTRVELEVNPETGEVTEKIYVGGKLLYTFKDGELKYIPDEVAAARIEARLPPESAGG [r13_958_TrMRF] | 1.45 ± 0.11 | 1.84 ± 0.079 | -0.0213 ± 0.12
19 | SAGGMEIKIEKEGNKIKITIKNENGEIEEFEITLKDGKKYRIIIDKDNPNTIYIVDEKTGKTIVLKASAGGS [r16_198_TrROS_Hall] | 4.71 ± 0.3 | 4.55 ± 0.11 | 4.6 ± 0.64
20 | SAGGMEIVSSGSLEEAIALLKENPNTTITVTLPDGTTVVIKVTQNGEGPYIYDVSTEPPAAAPSPSLVSAGG [r13_56_JUSTAS] | 1.66 ± 0.079 | 1.1 ± 0.038 | 2.15 ± 0.096
21 | SAGGMEKAIKEIKEAAKKGEEAVIVLPKNVDPSELISAIEKETGAKVEPLEVKPLPNGELVIKIKVKSAGGS [r16_318_TrMRF] | 1.89 ± 0.12 | 2.23 ± 0.16 | 1.44 ± 0.1

Row | Sequence | folding stability dG unfold [1] [kcal/mol] | folding stability dG unfold [2] [kcal/mol] | folding stability dG unfold [3] [kcal/mol]
22 | SAGGMELVGEYEVELPDVPIRFPVYRVPEAGLVVVEAERYDPSTGEWTPLGVVPLPEGSAEEALKALSAGGS [r8_423_TrMRF] | 0.864 ± 0.061 | 0.334 ± 0.089 | 1.21 ± 0.034
23 | SAGGMELVIAVNSKEEAKKAAEEIKKKTPKGFKLEIEIEEYDLKENVEPEDKDIENIKVYLIKVKLESAGGS [r16_795_TrMRF] | 1.69 ± 0.23 | 2.01 ± 0.21 | 1.4 ± 0.13
24 | SAGGMELVSRKRLSTSADGSVTYLYEYYDPKTGKRYTLVVTVKTPDGKIKPKVFTADSEEEAKKIALESAGG [r13_26_JUSTAS] | 1.34 ± 0.11 | 1.56 ± 0.16 | 1.1 ± 0.06
25 | SAGGMEPIEIPAKVKITHNGKEQEYPLENVTIWPMPDGMYMIYNPDKGEMFFINPKNGRLMRIEIDDSAGGS [r16_721_TrROS] | 1.99 ± 0.19 | 2.5 ± 0.15 | 0.94 ± 0.092
26 | SAGGMERKTLTVNVPASVPASELLSLLEGYGDVLLVLGNGEVLHIKRDDAPGLEGLPLSDDDVLELYYSAGG [r13_399_TrMRF] | 0.802 ± 0.075 | 1.23 ± 0.059 | -0.696 ± 0.14
27 | SAGGMEVKEISIPVPENLTPEQAVEKVKELFEKHPELEHVLVYFELPNGKPLVVEVDKNGKITKVEEKSAGG [r13_690_TrMRF] | 1.88 ± 0.095 | 2.28 ± 0.048 | 0.889 ± 0.041
28 | SAGGMEVREIDVENEDGHNVKIEIWWMPGEGWIMVKIEGPNPALIDDIQKEIGLPILEVMKDGYLMIKSAGG [r13_937_TrROS] | 2.22 ± 0.091 | 2.6 ± 0.033 | 1.16 ± 0.03
29 | SAGGMEVVEIKYDPETGTVTVTVAIPESLSFDEVAPEVEALVKEKTGRPVEITVDPATGTVTATVPRSAGGS [r8_314_JUSTAS] | 1.15 ± 0.072 | 1.39 ± 0.058 | 0.832 ± 0.031
30 | SAGGMFKVYEVTGKDAKVTIVEAPLPDGGKLVVVEVWEGGKPVKPFLVPVAELEEIAKAIGIKPEELKSAGG [r13_108_TrMRF] | 1.58 ± 0.14 | 1.9 ± 0.082 | 1.05 ± 0.027
31 | SAGGMGFEKVGTFKLEDDVIVEIYKGPEKKLVAKVYFPKTGKVIEDPGHPDESIEELIERIKAIAEEESAGG [r13_624_TrMRF] | 4.2 ± 0.28 | 4.32 ± 0.07 | 4.48 ± 0.39
32 | SAGGMGISTEPEISFERKTLPDGTYVLEIHTTTTTTDSSGVVTTTTSTKTVKFSPDNPEKIKELIEALSAGG [r13_412_JUSTAS] | 2.54 ± 0.14 | 2.51 ± 0.058 | 2.67 ± 0.098
33 | SAGGMGRARLYELEIEVDLHPDETIEGALRRLLGLREDEEILEVEAEVDPVNGKVRIRAVVLVRDPETSAGG [r13_828_TrMRF] | 3.85 ± 0.081 | 4.22 ± 0.032 | 2.47 ± 0.087
34 | SAGGMIKIEVEKKDDKLIIRIEVDGKKYEIEIPKDMTLEEALKKALEELKEKFPGKKIKIKKVEIFKPSAGG [r13_884_TrROS_Hall] | 2.36 ± 0.28 | 2.21 ± 0.088 | 3.22 ± 0.21
35 | SAGGMIKVEVEPLEDGVLRVRVYVPHPDGPPIEIEVVFPPEVGSLEEALEKAVEVVEEFLKKHNIPLSAGGS [r8_464_TrMRF] | 2.36 ± 0.1 | 2.22 ± 0.065 | 2.25 ± 0.082
36 | SAGGMILEIEFPPELIEELLEKLKKEFPDVEVKPLKIEYDPETGLVKVPILVKTKNPEEVEKIKKLAASAGG [r13_539_TrMRF] | 2.83 ± 0.11 | 2.78 ± 0.091 | 2.91 ± 0.15
37 | SAGGMILKITIPKEDEEKAKELADELAKKLEEETGKPIKVKVKVEKNENGELTIVIEVDGKKIEIKLSAGGS [r16_356_TrROS_Hall] | 0.999 ± 0.27 | 0.444 ± 0.078 | 1.32 ± 0.091
38 | SAGGMIRITTEDGEELSEEELAELEEAIRKGDLDEAVKKIEELLRERFGKEIKIKVEVFFPPPPPPESAGGS [r8_48_TrROS_Hall] | 3.59 ± 0.15 | 3.26 ± 0.092 | 3.79 ± 0.26
39 | SAGGMIRVEDTSTSVSIDIEITPLPNGQYKATITTTTTSAKLLPNGTPVTTTTPTTSTVTITPDVPLLSAGG [r13_561_JUSTAS] | 1.12 ± 0.14 | 0.681 ± 0.15 | 1.47 ± 0.053
40 | SAGGMITLEIELEDGTKIKIEITRLVSYDEEKGYAIFEAKITVEKDGKKFEKTITIIVKKGTKPGEIISAGG [r13_823_TrROS_Hall] | 4.19 ± 0.38 | 4.01 ± 0.25 | 4.45 ± 0.43
41 | SAGGMITLPIPLEEAEKLLKELTPDGGDVTTTPLGSLDGEVLYEVTITPPETGNTVTVKVLVPKGRGSAGGS [r16_486_JUSTAS] | 0.0837 ± 0.16 | 0.178 ± 0.11 | -0.627 ± 0.32
42 | SAGGMITLTTKTELIGSYRVTYSVTVDPVDDSVVTSTHVTVTPLPPPPPPLPPVPPENPVLPSPRLESAGGS [r8_234_JUSTAS] | 0.608 ± 0.2 | 0.56 ± 0.42 | 0.355 ± 0.15
